Measured values reported in patent publication US11071783 (DUKE UNIVERSITY, dated 2021).

T1: STUB1 (STIP1 homology and U-box containing protein 1) (human, UniProt Q9UNE7 1-303)
T1 construct: also called E3 ubiquitin ligase STIP1 Homology and U-Box Containing Protein 1
T1 sequence (looked up): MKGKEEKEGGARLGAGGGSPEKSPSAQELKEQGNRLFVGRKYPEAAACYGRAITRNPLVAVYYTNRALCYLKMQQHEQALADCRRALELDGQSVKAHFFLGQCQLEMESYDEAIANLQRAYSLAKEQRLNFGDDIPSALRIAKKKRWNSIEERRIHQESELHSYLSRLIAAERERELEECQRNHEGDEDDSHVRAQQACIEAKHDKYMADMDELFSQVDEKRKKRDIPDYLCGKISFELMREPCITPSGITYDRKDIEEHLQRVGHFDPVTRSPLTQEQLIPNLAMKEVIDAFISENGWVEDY

B1: DH511.2 (antibody, V domains shown)
VH: QVQLVQSGGGLVKPGGSLTLSCSASGFFFDNSWMGWVRQAPGKGLEWVGRIRRLKDGATGEYGAAVKDRFTISRDDSRNMLYLHMRTLKTEDSGTYYCTMDEGTPVTRFLEWGYFYYYMAVWGRGTTVIVSS
VL: DIVMTQSPSSVSASVGDRVTITCRASQNIRDYLNWYQHKPGGSPRLLIYAASTLQTGVPSRFSGSGSGNLFTLTITNLQPEDFATYYCQENYNTIPSLSFGQGTKVDIR
notes: also called DH512; Ab510049

Columns and labels:
[1] = biological target: gp41 of HIV-1 isolate B.BG1168 Env (HIV-1); test: cell-based or functional assay
[2] = biological target: T1, STUB1 (STIP1 homology and U-box …); test: protein microarray of >9400 human proteins
Experimental: Antibodies were also screened for binding to a panel of >9,400 human proteins using a Protoarray microarray (Invitrogen, Carlsbad, Calif.) according to the manufacturer's instructions and as described in (6). […] Arrays were scanned using a GenePix 4000B scanner (Molecular Devices, Sunnyvale, Calif.) at a wavelength of 635 nm, 10 µm resolution, using 100% power and 650 gain. The fluorescence intensity of antibody binding was measured with the GenePix Pro 5.0 program (Molecular Devices, Sunnyvale, Calif.).

Row | Molecule | lifetime of neutralization (t1/2), post-attachment TZM-bl assay with B.BG1168 [1] [min] | binding result [2]
1 | 4E10 (antibody) | 28.2 | 
2 | 10E8 (antibody) | 25.6 | 
3 | B1 |  | binds
